Assay results taken from US20200138864A1 (CRAGE MEDICAL, published 2020).

B1: antigen binding unit 2 (ABU2) (scFv)
scFv: GVQLVESGAEVKKPGASVKVSCKASGYTFTELSMHWVRQAPGKGLEWMGLVDPEDGETIYAEKFQGRVTITADTSTDTAYMELSSLRSEDTAVYYCATDLAAGTNDYWGKGTLVTVSSGGGGSGGGGSGGGGSQAVVTQEPSVTVSPGGTVTLTCGSDTGAVTSGHYPYWFQQKPGQAPRTLIYDTSNKHSWTPARFSGSLLGGKAALTLSGAQPDDEADYYCLLSYSGEWVFGGGTKVTVL
notes: also called parent ABU2; parental ABU2
B2: ABU2 (ScFv_Fc) (Fc fusion, not shown: a dimerising Fc or GST)
scFv: GVQLVESGAEVKKPGASVKVSCKASGYTFTELSMHWVRQAPGKGLEWMGLVDPEDGETIYAEKFQGRVTITADTSTDTAYMELSSLRSEDTAVYYCATDLAAGTNDYWGKGTLVTVSSGGGGSGGGGSGGGGSQAVVTQEPSVTVSPGGTVTLTCGSDTGAVTSGHYPYWFQQKPGQAPRTLIYDTSNKHSWTPARFSGSLLGGKAALTLSGAQPDDEADYYCLLSYSGEWVFGGGTKVTVL
notes: The format is printed only on the sheet; also called parent ABU2 as scFv-Fc
B3: ABU3 (ScFv_Fc) (Fc fusion, not shown: a dimerising Fc or GST)
scFv: GVQLVESGAEVKKPGASVKVSCKASGYTFTELSMHWVRQAPGKGLEWMGLVDPEDGETIYAEKFQGRVTITADTSTDTAYMELSSLRSEDTAVYYCATDLAAGTNDYWGKGTLVTVSSGGGGSGGGGSGGGGSQAVVTQEPSVTVSPGGTVTLTCGSDSGPVTRGHYPYWFQQKPGQAPRTLIDDTSRKHSWTPARFSGSLLGGKAALTLSGAQPDDEADYYCLLSYSGEWVFGGGTKVTVL
notes: The format is printed only on the sheet
B4: ABU4 (scFv)
scFv: GVQLVESGAEVKKPGASVKVSCKASGYTFTELSMHWVRQAPGKGLEWMGLVVPADGETIYAEKFQGRVTITADTSTDTAYMELSSLRSEDTAVYYCATDLAAGTNDYWGKGTLVTVSSGGGGSGGGGSGGGGSQAVVTQEPSVTVSPGGTVTLTCGSDTGAVTSGHYPYWFQQKPGQAPRTLIYDTSNKHSWTPARFSGSLLGGKAALTLSGAQPDDEADYYCLLSYSGEWVFGGGTKVTVL
B5: ABU5 (scFv)
scFv: GVQLVESGAEVKKPGASVKVSCKASGYTFTELSMHWVRQAPGKGLEWMGLVVPDDGETIYAEKFQGRVTITADTSTDTAYMELSSLRSEDTAVYYCATDLAAGTNDYWGKGTLVTVSSGGGGSGGGGSGGGGSQAVVTQEPSVTVSPGGTVTLTCGSDTGAVTSGHYPYWFQQKPGQAPRTLIYDTSNKHSWTPARFSGSLLGGKAALTLSGAQPDDEADYYCLLSYSGEWVFGGGTKVTVL

How the values were obtained:
[1] = target: T1, reference peptide RMFS1 complexed with HLA on T2 cells (T2/RMFS1); assay: flow cytometry on T2/RMFS1 cells
T1 construct: whole, on cells

[2] = target: T2, reference peptide RMFS2 complexed with HLA on T2 cells (T2/RMFS2); assay: flow cytometry on T2/RMFS2 cells
T2 construct: whole, on cells

[3] = target: T3, RMF/HLA.A0201 complex (WT1 peptide RMF complexed with recombinant HLA.A0201-BSP and human β2m) (human, labeled with a biotinylation kit (BirA) on the BSP); assay: SPR (Biacore T200), 1:1 Langmuir fit
T3 construct: also called RMF/HLA complex; WT1 peptide (RMF) complexed with HLA; not shown: biotin protein ligase BirA substrate peptide (BSP)

[4] = target: T3, RMF/HLA.A0201 complex (WT1 peptide RMF …); assay: ELISA with 2.5, 0.5 and 0.2 ug/ml RMF/HLA complex, scFv clone

Binder | Kd [3] | binding result [4] | other results
B1 | – | – | binding result [1]: no binding; binding result [2]: no binding
B2 | 1.47 nM | – | –
B3 | 0.0467 nM | – | –
B4 | – | binds | –
B5 | – | binds | –
